B2: LS1 (aa1-98) (receptor)
chain: ECKEALVKSRMNVNMQYQLPNFTAETRIQNVVLHKHHIYLGAVNYIYVLNDKDLQKVAEYKTGPVLEHPHCFPCEDCSHKANLSDGVWKDNINMALLVDTYYDDQLISCGSVNRGTCQRHVFPHNHTADIQSEVHCIFSPQIEEPSQCPDCVVSALGAKVLSSVKDRFINFFVGNTINSSYFPDHPLHSISVRRLKETKDGFMFLTDQSYIDVLPEFRDSYPIKYVHAFESNNFIYFLTVQRETLDAQTFHTRIIRFCSINSGLHSYMEMPLECILTEKRKKRSTKKEVFNILQAAYVSKPGAQLARQIGASLNDDILFGVFAQSKPDSAEPMDRSAMCAFPIKYVNDFFNKIVNKNNVRCLQHFYGPNHEHCFNRTLLRNSSGCEARRDEYRTEFTTALQRVDLFMGQFSEVLLTSISTFIKGDLTIANLGTSEGRFMQVVVSRSGPSTPHVNFLLDSHPVSPEVIVEHTLNQNGYTLVITGKKITKIPLNGLGCRHFQSCSQCLSAPPFVQCGWCHDKCVRSEECLSGTWTQQICLPAIYKVFPNSAPLEGGTRLTICGWDFGFRRNNKFDLKKTRVLLGNESCTLTLSESTMNTLKCTVGPAMNKHFNMSIIISNGHGTTQYSTFSYVDPVITSISPKYGPMAGGTLLTLTGNYLNSGNSRHISIGGKTCTLKSVSNSILECYTPAQTISTEFAVKLKIDLANRETSIFSYREDPIVYEIHPTKSFISGGSTITGVGKNLNSVSVPRMVINVHEAGRNFTVACQHRSNSEIICCTTPSLQQLNLQLPLKTKAFFMLDGILSKYFDLIYVHNPVFKPFEKPVMISMGNENVLEIKGNDIDPEAVKGEVLKVGNKSCENIHLHSEAVLCTVPNDLLKLNSELNIEWKQAISSTVLGKVIVQPDQNFT
notes: Ranges count on mature human c-Met

Bounds are passed on as bounds.

In experiment [1] the target is T1, human/llama-IPT chimeric c-Met ECD (human; Llama glama, UniProt P08581 25-932).
T1 construct: ranges stand under form; also called human/llama IPT1-4; construct with the human SEMA-PSI
T1 chain: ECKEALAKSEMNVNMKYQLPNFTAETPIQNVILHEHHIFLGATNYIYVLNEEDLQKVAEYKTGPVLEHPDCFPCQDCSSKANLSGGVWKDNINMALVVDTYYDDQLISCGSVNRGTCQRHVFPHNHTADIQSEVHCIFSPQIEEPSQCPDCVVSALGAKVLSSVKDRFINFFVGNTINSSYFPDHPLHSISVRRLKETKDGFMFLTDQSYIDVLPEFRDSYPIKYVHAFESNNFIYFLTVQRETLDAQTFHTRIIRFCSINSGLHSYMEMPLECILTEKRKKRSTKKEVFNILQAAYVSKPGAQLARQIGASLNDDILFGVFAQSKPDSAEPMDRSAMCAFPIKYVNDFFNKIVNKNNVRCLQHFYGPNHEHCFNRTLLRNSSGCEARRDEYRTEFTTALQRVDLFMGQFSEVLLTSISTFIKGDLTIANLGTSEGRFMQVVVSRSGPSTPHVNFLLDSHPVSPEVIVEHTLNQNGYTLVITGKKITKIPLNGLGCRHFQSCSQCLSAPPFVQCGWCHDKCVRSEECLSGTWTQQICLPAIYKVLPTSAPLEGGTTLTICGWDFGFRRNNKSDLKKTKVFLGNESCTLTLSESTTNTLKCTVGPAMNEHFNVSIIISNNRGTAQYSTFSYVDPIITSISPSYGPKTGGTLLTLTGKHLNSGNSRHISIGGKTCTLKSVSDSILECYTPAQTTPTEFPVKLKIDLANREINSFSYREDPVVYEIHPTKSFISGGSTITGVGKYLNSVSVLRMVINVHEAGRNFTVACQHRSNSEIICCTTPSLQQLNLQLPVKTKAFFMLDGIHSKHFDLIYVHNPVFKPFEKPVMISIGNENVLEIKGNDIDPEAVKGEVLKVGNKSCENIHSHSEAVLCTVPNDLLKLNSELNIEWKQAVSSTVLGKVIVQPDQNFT
In words: ELISA, 200 ng immobilised c-Met protein, mAb titrated. For orientation: ELISA stands for enzyme-linked immunosorbent assay.

For experiment [2], the target named is human c-Met on cells (MKN-45, A549, HPAF, BxPC3, NCI-H441) (human, UniProt P08581 25-1390). Briefly: cell-based or functional assay.
In experiment [3] the target is B2. In words: ELISA, mAb immobilised, c-Met chimera titrated (EC50 of the chimera). The source says: An ELISA was run to investigate the binding of the mAbs to the different chimeras.
Experiment [4] has as its target Ll10 (aa608-909) (human; Llama glama). The experiment is described as above.
The target of experiment [5] is Ll8 (aa540-909) (human; Llama glama). The experiment is described as above.
In experiment [6] the target is Ll11 (aa634-909) (human; Llama glama). The experiment is described as above.
Experiment [7] deals with LP7* (aa523-909) (human; Llama glama). The experiment is described as above.
Experiment [8] addresses LP6 (aa497-909) (human; Llama glama). Described as above.
For experiment [9], the target named is Ll9 (aa572-909) (human; Llama glama). The description is as above.
Experiment [10] has as its target T2, llama c-Met ECD (aa 25-932), His tag (Llama glama).
T2 construct: also called Llama glama c-Met
T2 chain: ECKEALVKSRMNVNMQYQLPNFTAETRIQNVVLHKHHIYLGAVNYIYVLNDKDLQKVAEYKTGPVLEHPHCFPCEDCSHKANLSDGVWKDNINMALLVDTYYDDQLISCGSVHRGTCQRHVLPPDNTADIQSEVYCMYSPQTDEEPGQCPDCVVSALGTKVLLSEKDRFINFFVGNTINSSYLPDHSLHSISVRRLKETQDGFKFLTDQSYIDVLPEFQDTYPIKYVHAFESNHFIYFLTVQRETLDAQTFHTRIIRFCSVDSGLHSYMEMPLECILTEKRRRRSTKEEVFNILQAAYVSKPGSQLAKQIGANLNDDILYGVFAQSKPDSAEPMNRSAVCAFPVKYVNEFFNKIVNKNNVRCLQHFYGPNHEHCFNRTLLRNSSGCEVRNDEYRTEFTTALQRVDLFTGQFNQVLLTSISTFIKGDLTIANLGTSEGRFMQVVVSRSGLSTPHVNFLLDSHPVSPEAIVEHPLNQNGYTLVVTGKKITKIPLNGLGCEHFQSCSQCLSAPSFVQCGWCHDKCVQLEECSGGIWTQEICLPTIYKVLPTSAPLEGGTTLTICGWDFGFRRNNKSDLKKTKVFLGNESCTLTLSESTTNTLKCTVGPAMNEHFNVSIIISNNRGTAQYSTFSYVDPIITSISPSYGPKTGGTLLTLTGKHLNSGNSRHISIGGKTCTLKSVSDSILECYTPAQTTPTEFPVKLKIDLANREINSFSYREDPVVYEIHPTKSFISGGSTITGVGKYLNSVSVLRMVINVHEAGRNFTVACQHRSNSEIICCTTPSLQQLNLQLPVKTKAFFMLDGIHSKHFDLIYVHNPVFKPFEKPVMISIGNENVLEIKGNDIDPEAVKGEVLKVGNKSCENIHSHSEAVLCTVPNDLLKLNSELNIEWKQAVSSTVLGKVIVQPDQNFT
In words: ELISA, 200 ng immobilised c-Met protein.

In experiment [11] the target is T3, HGF (UniProt P14210 32-728, limits assumed).
T3 construct: also called hepatocyte growth factor
Briefly: SPR, HGF on CM-5 chip, 10 µg/ml c-Met chimera injected. The protocol:
Surface Plasmon Resonance (SPR) was also used to investigate the binding of the mAbs to the different llama-human c-Met chimeras. 3000 RU of 36C4, 48A2 and HGF were coupled on a CM-5 chip in 10 mM NaAc (pH4.5). 60 μl of a 10 μg/ml solution of the different c-Met chimeras was run over the chip at a flow rate of 30 μl/min and the association for 2 min was evaluated. The chip was regenerated with 20 mM NaOH and 1 M NaCl.
(In general: Surface plasmon resonance follows binding to a sensor surface in real time, without labels.)

T3 sequence (P14210 32-728 limits assumed): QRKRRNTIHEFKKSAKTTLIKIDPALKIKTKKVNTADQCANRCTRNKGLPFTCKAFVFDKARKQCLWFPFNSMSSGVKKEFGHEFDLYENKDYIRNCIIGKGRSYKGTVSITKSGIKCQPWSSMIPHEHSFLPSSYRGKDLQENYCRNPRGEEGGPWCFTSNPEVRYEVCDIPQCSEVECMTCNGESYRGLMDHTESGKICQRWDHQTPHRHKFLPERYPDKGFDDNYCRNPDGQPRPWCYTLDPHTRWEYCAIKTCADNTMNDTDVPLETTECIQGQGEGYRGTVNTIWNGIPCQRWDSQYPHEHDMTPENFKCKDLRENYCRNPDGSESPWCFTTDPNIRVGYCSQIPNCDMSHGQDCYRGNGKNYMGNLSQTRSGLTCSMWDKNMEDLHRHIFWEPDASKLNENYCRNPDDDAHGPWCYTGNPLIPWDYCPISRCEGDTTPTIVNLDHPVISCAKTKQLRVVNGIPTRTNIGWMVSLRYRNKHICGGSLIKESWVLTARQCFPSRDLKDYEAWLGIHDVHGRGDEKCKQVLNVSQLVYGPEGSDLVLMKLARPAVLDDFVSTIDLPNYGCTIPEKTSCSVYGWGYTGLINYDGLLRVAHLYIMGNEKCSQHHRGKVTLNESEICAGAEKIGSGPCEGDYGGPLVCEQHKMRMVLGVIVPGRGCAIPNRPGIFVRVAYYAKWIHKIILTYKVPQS

B1: 36C4 (antibody, V domains shown)
VH: QVQLVESGPGLVKPSQTLSLTCAVSGGSITTNYYYWSWIRQSPGKGLEWMGVIAYDGSTDYSPSLKSRTSISRDTSKNQFSLQLSSVTPEDTAVYYCARDVRVIATGWATANALDAWGQGTLVTVSS
VL: QSVLTQPPSVSGSPGKTVTISCAGTSSDVGYGNYVSWYQQLPGTAPKLLIFAVSYRASGIPDRFSGSKSGNTAFLTISGLQSEDEADYYCASYRSSNNAAVFGGGTHLTVL
notes: also called mAb 36C4; SIMPLE antibody 36C4
Broadly, the EC50 is the concentration giving half of the maximal effect. Lower therefore signals an effect from little substance. As for B1, the values for the binding result in [1] and in experiment [10] were “binds” and “no binding”, respectively. In experiment [2], the “ADCC, specific lysis of MKN-45 cells, EC50” value was determined as 0.005 µg/mL. In addition, the “antibody-induced proliferation of BxPC3 cells, percentage of the proliferation obtained with 75 ng/ml HGF” value in experiment [2] was below 20%. The EC50 in experiment [3] stood at 0.068 µg/mL; in [4] it was 0.047 µg/mL; in experiment [5], 0.047 µg/mL; in [6], 0.045 µg/mL; in [7], 0.055 µg/mL; in [8], 0.05 µg/mL. For the same molecule, in [9], the EC50 is 0.047 µg/mL.
For B2, the binding result in [11] is “binds”.

The record behind these values is patent publication US20180215833A1 (published 2018).
